Data taken from IntAct's records for PubMed 34799561.

B1: DNA damage-inducible transcript 3 protein (Homo sapiens), P35638 (parent)
chain: MAAESLPFSFGTLSSWELEAWYEDLQEVLSSDENGGTYVSPPGNEEEESKIFTTLDPASLAWLTEEEPEPAEVTSTSQSPHSPDSSQSSLAQEEEEEDQGRTRKRKQSGHSPARAGKQRMKEKEQENERKVAQLAEENERLKQEIERLTREVEATRRALIDRMVNLHQA
B2: Ubiquitin-associated protein 2-like (Homo sapiens), Q14157 (parent)
chain: MMTSVGTNRARGNWEQPQNQNQTQHKQRPQATAEQIRLAQMISDHNDADFEEKVKQLIDITGKNQDECVIALHDCNGDVNRAINVLLEGNPDTHSWEMVGKKKGVSGQKDGGQTESNEEGKENRDRDRDYSRRRGGPPRRGRGASRGREFRGQENGLDGTKSGGPSGRGTERGRRGRGRGRGGSGRRGGRFSAQGMGTFNPADYAEPANTDDNYGNSSGNTWNNTGHFEPDDGTSAWRTATEEWGTEDWNEDLSETKIFTASNVSSVPLPAENVTITAGQRIDLAVLLGKTPSTMENDSSNLDPSQAPSLAQPLVFSNSKQTAISQPASGNTFSHHSMVSMLGKGFGDVGEAKGGSTTGSQFLEQFKTAQALAQLAAQHSQSGSTTTSSWDMGSTTQSPSLVQYDLKNPSDSAVHSPFTKRQAFTPSSTMMEVFLQEKSPAVATSTAAPPPPSSPLPSKSTSAPQMSPGSSDNQSSSPQPAQQKLKQQKKKASLTSKIPALAVEMPGSADISGLNLQFGALQFGSEPVLSDYESTPTTSASSSQAPSSLYTSTASESSSTISSNQSQESGYQSGPIQSTTYTSQNNAQGPLYEQRSTQTRRYPSSISSSPQKDLTQAKNGFSSVQATQLQTTQSVEGATGSAVKSDSPSTSSIPPLNETVSAASLLTTTNQHSSSLGGLSHSEEIPNTTTTQHSSTLSTQQNTLSSSTSSGRTSTSTLLHTSVESEANLHSSSSTFSTTSSTVSAPPPVVSVSSSLNSGSSLGLSLGSNSTVTASTRSSVATTSGKAPPNLPPGVPPLLPNPYIMAPGLLHAYPPQVYGYDDLQMLQTRFPLDYYSIPFPTPTTPLTGRDGSLASNPYSGDLTKFGRGDASSPAPATTLAQPQQNQTQTHHTTQQTFLNPALPPGYSYTSLPYYTGVPGLPSTFQYGPAVFPVAPTSSKQHGVNVSVNASATPFQQPSGYGSHGYNTGVSVTSSNTGVPDISGSVYSKTQQSFEKQGFHSGTPAASFNLPSALGSGGPINPATAAAYPPAPFMHILTPHQQPHSQILHHHLQQDGQTGSGQRSQTSSIPQKPQTNKSAYNSYSWGAN

Variants of: B1
Details: with G3BP1, Q13283
Target sequence in this assay (Q13283 whole entry, looked up): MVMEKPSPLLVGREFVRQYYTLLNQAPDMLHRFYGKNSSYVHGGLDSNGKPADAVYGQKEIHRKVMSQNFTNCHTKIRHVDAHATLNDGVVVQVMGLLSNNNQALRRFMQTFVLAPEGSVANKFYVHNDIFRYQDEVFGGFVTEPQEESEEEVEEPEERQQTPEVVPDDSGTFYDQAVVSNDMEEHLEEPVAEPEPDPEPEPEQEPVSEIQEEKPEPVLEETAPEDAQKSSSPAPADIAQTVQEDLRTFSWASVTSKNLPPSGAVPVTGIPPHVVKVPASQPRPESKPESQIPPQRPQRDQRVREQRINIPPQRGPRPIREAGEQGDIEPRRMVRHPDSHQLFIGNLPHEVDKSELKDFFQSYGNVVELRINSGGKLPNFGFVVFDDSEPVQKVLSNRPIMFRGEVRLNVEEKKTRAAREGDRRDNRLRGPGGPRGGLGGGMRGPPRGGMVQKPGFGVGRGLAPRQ

Variant | effect of a mutation on the interaction
F10A;G11A | disrupting interaction strength

Variants of: B2
Details: with G3BP1, Q13283
Target sequence in this assay (Q13283 whole entry, looked up): as above

Variant | effect of a mutation on the interaction
F518A;F523A | disrupting interaction strength

Variants of: B2
Details: with G3BP1, Q13283
Remark: another data set of the same source
Target sequence in this assay (Q13283 whole entry, looked up): as above

Variant | effect of a mutation on the interaction
F518A;F523A | decreasing interaction strength
